Results published in US20170355775A1 (ELANCO TIERGESUNDHEIT, published 2017).

T1: canine CD20 ECD2 peptide (canine)
T1 peptide: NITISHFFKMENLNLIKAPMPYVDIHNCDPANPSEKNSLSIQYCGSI

B1: chimeric anti-canine CD20 antibody 1E4-cIgGB (antibody, V domains shown)
VH: EVQLVESGGGLVKPGGSLKLSCAASGFTFSDYGMLWVRQAPEKGLEWIAYISSGSSTIYYADRVKGRFTISRDNAKNTLFLQMTSLRSEDTAMYYCSTGTFAYWGQGTPVTVSS
VL: DVVMTQNPLSLPVSLGDQASISCRSSQSLIYNNGNTYLHWYRQKPGQSPKLLIYKVSNRFSGVPDRFSGSGSGTDFTLKISRVEAEDLGVYFCSQSTHVPFTFGSGTKLEIKR
notes: also called unmodified (WT) 1E4-cIgGB; 1E4-cIGB
B2: 1E4-cIgGB with G34 to V substitution in VL (antibody, V domains shown)
VH: EVQLVESGGGLVKPGGSLKLSCAASGFTFSDYGMLWVRQAPEKGLEWIAYISSGSSTIYYADRVKGRFTISRDNAKNTLFLQMTSLRSEDTAMYYCSTGTFAYWGQGTPVTVSS
VL: DVVMTQNPLSLPVSLGDQASISCRSSQSLIYNNVNTYLHWYRQKPGQSPKLLIYKVSNRFSGVPDRFSGSGSGTDFTLKISRVEAEDLGVYFCSQSTHVPFTFGSGTKLEIKR
notes: Whole antibody (heavy plus light chains) made 'using the above procedures'
B3: 1E4-cIgGB with N33 to Y substitution in VL (antibody, V domains shown)
VH: EVQLVESGGGLVKPGGSLKLSCAASGFTFSDYGMLWVRQAPEKGLEWIAYISSGSSTIYYADRVKGRFTISRDNAKNTLFLQMTSLRSEDTAMYYCSTGTFAYWGQGTPVTVSS
VL: DVVMTQNPLSLPVSLGDQASISCRSSQSLIYNYGNTYLHWYRQKPGQSPKLLIYKVSNRFSGVPDRFSGSGSGTDFTLKISRVEAEDLGVYFCSQSTHVPFTFGSGTKLEIKR
notes: as for B2
B4: 1E4-cIgGB with G34 to Y substitution in VL (antibody, V domains shown)
VH: EVQLVESGGGLVKPGGSLKLSCAASGFTFSDYGMLWVRQAPEKGLEWIAYISSGSSTIYYADRVKGRFTISRDNAKNTLFLQMTSLRSEDTAMYYCSTGTFAYWGQGTPVTVSS
VL: DVVMTQNPLSLPVSLGDQASISCRSSQSLIYNNYNTYLHWYRQKPGQSPKLLIYKVSNRFSGVPDRFSGSGSGTDFTLKISRVEAEDLGVYFCSQSTHVPFTFGSGTKLEIKR
notes: as for B2
B5: 1E4-cIgGB with N33 to E substitution in VL (antibody, V domains shown)
VH: EVQLVESGGGLVKPGGSLKLSCAASGFTFSDYGMLWVRQAPEKGLEWIAYISSGSSTIYYADRVKGRFTISRDNAKNTLFLQMTSLRSEDTAMYYCSTGTFAYWGQGTPVTVSS
VL: DVVMTQNPLSLPVSLGDQASISCRSSQSLIYNEGNTYLHWYRQKPGQSPKLLIYKVSNRFSGVPDRFSGSGSGTDFTLKISRVEAEDLGVYFCSQSTHVPFTFGSGTKLEIKR
notes: as for B2
B6: 1E4-cIgGB with N33 to V substitution in VL (antibody, V domains shown)
VH: EVQLVESGGGLVKPGGSLKLSCAASGFTFSDYGMLWVRQAPEKGLEWIAYISSGSSTIYYADRVKGRFTISRDNAKNTLFLQMTSLRSEDTAMYYCSTGTFAYWGQGTPVTVSS
VL: DVVMTQNPLSLPVSLGDQASISCRSSQSLIYNVGNTYLHWYRQKPGQSPKLLIYKVSNRFSGVPDRFSGSGSGTDFTLKISRVEAEDLGVYFCSQSTHVPFTFGSGTKLEIKR
notes: as for B2
B7: 1E4-cIgGB with G34 to I substitution in VL (antibody, V domains shown)
VH: EVQLVESGGGLVKPGGSLKLSCAASGFTFSDYGMLWVRQAPEKGLEWIAYISSGSSTIYYADRVKGRFTISRDNAKNTLFLQMTSLRSEDTAMYYCSTGTFAYWGQGTPVTVSS
VL: DVVMTQNPLSLPVSLGDQASISCRSSQSLIYNNINTYLHWYRQKPGQSPKLLIYKVSNRFSGVPDRFSGSGSGTDFTLKISRVEAEDLGVYFCSQSTHVPFTFGSGTKLEIKR
notes: as for B2
B8: 1E4-cIgGB with N33 to A substitution in VL (antibody, V domains shown)
VH: EVQLVESGGGLVKPGGSLKLSCAASGFTFSDYGMLWVRQAPEKGLEWIAYISSGSSTIYYADRVKGRFTISRDNAKNTLFLQMTSLRSEDTAMYYCSTGTFAYWGQGTPVTVSS
VL: DVVMTQNPLSLPVSLGDQASISCRSSQSLIYNAGNTYLHWYRQKPGQSPKLLIYKVSNRFSGVPDRFSGSGSGTDFTLKISRVEAEDLGVYFCSQSTHVPFTFGSGTKLEIKR
notes: as for B2
B9: 1E4-cIgGB with G34 to E substitution in VL (antibody, V domains shown)
VH: EVQLVESGGGLVKPGGSLKLSCAASGFTFSDYGMLWVRQAPEKGLEWIAYISSGSSTIYYADRVKGRFTISRDNAKNTLFLQMTSLRSEDTAMYYCSTGTFAYWGQGTPVTVSS
VL: DVVMTQNPLSLPVSLGDQASISCRSSQSLIYNNENTYLHWYRQKPGQSPKLLIYKVSNRFSGVPDRFSGSGSGTDFTLKISRVEAEDLGVYFCSQSTHVPFTFGSGTKLEIKR
notes: as for B2
B10: 1E4-cIgGB with G34 to P substitution in VL (antibody, V domains shown)
VH: EVQLVESGGGLVKPGGSLKLSCAASGFTFSDYGMLWVRQAPEKGLEWIAYISSGSSTIYYADRVKGRFTISRDNAKNTLFLQMTSLRSEDTAMYYCSTGTFAYWGQGTPVTVSS
VL: DVVMTQNPLSLPVSLGDQASISCRSSQSLIYNNPNTYLHWYRQKPGQSPKLLIYKVSNRFSGVPDRFSGSGSGTDFTLKISRVEAEDLGVYFCSQSTHVPFTFGSGTKLEIKR
notes: as for B2
B11: 1E4-cIgGB with N33 to P substitution in VL (antibody, V domains shown)
VH: EVQLVESGGGLVKPGGSLKLSCAASGFTFSDYGMLWVRQAPEKGLEWIAYISSGSSTIYYADRVKGRFTISRDNAKNTLFLQMTSLRSEDTAMYYCSTGTFAYWGQGTPVTVSS
VL: DVVMTQNPLSLPVSLGDQASISCRSSQSLIYNPGNTYLHWYRQKPGQSPKLLIYKVSNRFSGVPDRFSGSGSGTDFTLKISRVEAEDLGVYFCSQSTHVPFTFGSGTKLEIKR
notes: as for B2
B12: 1E4-cIgGB with N33 to R substitution in VL (antibody, V domains shown)
VH: EVQLVESGGGLVKPGGSLKLSCAASGFTFSDYGMLWVRQAPEKGLEWIAYISSGSSTIYYADRVKGRFTISRDNAKNTLFLQMTSLRSEDTAMYYCSTGTFAYWGQGTPVTVSS
VL: DVVMTQNPLSLPVSLGDQASISCRSSQSLIYNRGNTYLHWYRQKPGQSPKLLIYKVSNRFSGVPDRFSGSGSGTDFTLKISRVEAEDLGVYFCSQSTHVPFTFGSGTKLEIKR
notes: as for B2
B13: 1E4-cIgGB with N33 to F substitution in VL (antibody, V domains shown)
VH: EVQLVESGGGLVKPGGSLKLSCAASGFTFSDYGMLWVRQAPEKGLEWIAYISSGSSTIYYADRVKGRFTISRDNAKNTLFLQMTSLRSEDTAMYYCSTGTFAYWGQGTPVTVSS
VL: DVVMTQNPLSLPVSLGDQASISCRSSQSLIYNFGNTYLHWYRQKPGQSPKLLIYKVSNRFSGVPDRFSGSGSGTDFTLKISRVEAEDLGVYFCSQSTHVPFTFGSGTKLEIKR
notes: as for B2
B14: 1E4-cIgGB with N33 to L substitution in VL (antibody, V domains shown)
VH: EVQLVESGGGLVKPGGSLKLSCAASGFTFSDYGMLWVRQAPEKGLEWIAYISSGSSTIYYADRVKGRFTISRDNAKNTLFLQMTSLRSEDTAMYYCSTGTFAYWGQGTPVTVSS
VL: DVVMTQNPLSLPVSLGDQASISCRSSQSLIYNLGNTYLHWYRQKPGQSPKLLIYKVSNRFSGVPDRFSGSGSGTDFTLKISRVEAEDLGVYFCSQSTHVPFTFGSGTKLEIKR
notes: as for B2
B15: 1E4-cIgGB with G34 to L substitution in VL (antibody, V domains shown)
VH: EVQLVESGGGLVKPGGSLKLSCAASGFTFSDYGMLWVRQAPEKGLEWIAYISSGSSTIYYADRVKGRFTISRDNAKNTLFLQMTSLRSEDTAMYYCSTGTFAYWGQGTPVTVSS
VL: DVVMTQNPLSLPVSLGDQASISCRSSQSLIYNNLNTYLHWYRQKPGQSPKLLIYKVSNRFSGVPDRFSGSGSGTDFTLKISRVEAEDLGVYFCSQSTHVPFTFGSGTKLEIKR
notes: as for B2
B16: 1E4-cIgGB with N33 to Q substitution in VL (antibody, V domains shown)
VH: EVQLVESGGGLVKPGGSLKLSCAASGFTFSDYGMLWVRQAPEKGLEWIAYISSGSSTIYYADRVKGRFTISRDNAKNTLFLQMTSLRSEDTAMYYCSTGTFAYWGQGTPVTVSS
VL: DVVMTQNPLSLPVSLGDQASISCRSSQSLIYNQGNTYLHWYRQKPGQSPKLLIYKVSNRFSGVPDRFSGSGSGTDFTLKISRVEAEDLGVYFCSQSTHVPFTFGSGTKLEIKR
notes: as for B2
B17: 1E4-cIgGB with G34 to R substitution in VL (antibody, V domains shown)
VH: EVQLVESGGGLVKPGGSLKLSCAASGFTFSDYGMLWVRQAPEKGLEWIAYISSGSSTIYYADRVKGRFTISRDNAKNTLFLQMTSLRSEDTAMYYCSTGTFAYWGQGTPVTVSS
VL: DVVMTQNPLSLPVSLGDQASISCRSSQSLIYNNRNTYLHWYRQKPGQSPKLLIYKVSNRFSGVPDRFSGSGSGTDFTLKISRVEAEDLGVYFCSQSTHVPFTFGSGTKLEIKR
notes: as for B2
B18: 1E4-cIgGB with G34 to F substitution in VL (antibody, V domains shown)
VH: EVQLVESGGGLVKPGGSLKLSCAASGFTFSDYGMLWVRQAPEKGLEWIAYISSGSSTIYYADRVKGRFTISRDNAKNTLFLQMTSLRSEDTAMYYCSTGTFAYWGQGTPVTVSS
VL: DVVMTQNPLSLPVSLGDQASISCRSSQSLIYNNFNTYLHWYRQKPGQSPKLLIYKVSNRFSGVPDRFSGSGSGTDFTLKISRVEAEDLGVYFCSQSTHVPFTFGSGTKLEIKR
notes: as for B2
B19: 1E4-cIgGB with N33 to I substitution in VL (antibody, V domains shown)
VH: EVQLVESGGGLVKPGGSLKLSCAASGFTFSDYGMLWVRQAPEKGLEWIAYISSGSSTIYYADRVKGRFTISRDNAKNTLFLQMTSLRSEDTAMYYCSTGTFAYWGQGTPVTVSS
VL: DVVMTQNPLSLPVSLGDQASISCRSSQSLIYNIGNTYLHWYRQKPGQSPKLLIYKVSNRFSGVPDRFSGSGSGTDFTLKISRVEAEDLGVYFCSQSTHVPFTFGSGTKLEIKR
notes: as for B2
B20: 1E4-cIgGB with N33 to H substitution in VL (antibody, V domains shown)
VH: EVQLVESGGGLVKPGGSLKLSCAASGFTFSDYGMLWVRQAPEKGLEWIAYISSGSSTIYYADRVKGRFTISRDNAKNTLFLQMTSLRSEDTAMYYCSTGTFAYWGQGTPVTVSS
VL: DVVMTQNPLSLPVSLGDQASISCRSSQSLIYNHGNTYLHWYRQKPGQSPKLLIYKVSNRFSGVPDRFSGSGSGTDFTLKISRVEAEDLGVYFCSQSTHVPFTFGSGTKLEIKR
notes: as for B2
B21: 1E4-cIgGB with N33 to T substitution in VL (antibody, V domains shown)
VH: EVQLVESGGGLVKPGGSLKLSCAASGFTFSDYGMLWVRQAPEKGLEWIAYISSGSSTIYYADRVKGRFTISRDNAKNTLFLQMTSLRSEDTAMYYCSTGTFAYWGQGTPVTVSS
VL: DVVMTQNPLSLPVSLGDQASISCRSSQSLIYNTGNTYLHWYRQKPGQSPKLLIYKVSNRFSGVPDRFSGSGSGTDFTLKISRVEAEDLGVYFCSQSTHVPFTFGSGTKLEIKR
notes: as for B2
B22: 1E4-cIgGB with G34 to H substitution in VL (antibody, V domains shown)
VH: EVQLVESGGGLVKPGGSLKLSCAASGFTFSDYGMLWVRQAPEKGLEWIAYISSGSSTIYYADRVKGRFTISRDNAKNTLFLQMTSLRSEDTAMYYCSTGTFAYWGQGTPVTVSS
VL: DVVMTQNPLSLPVSLGDQASISCRSSQSLIYNNHNTYLHWYRQKPGQSPKLLIYKVSNRFSGVPDRFSGSGSGTDFTLKISRVEAEDLGVYFCSQSTHVPFTFGSGTKLEIKR
notes: as for B2

Molecular target: T1, canine CD20 ECD2 peptide
Experiment: ELISA on canine CD20 ECD2 peptide

Binding result, binds:
B1
B2
B3
B4
B5
B6
B7
B8
B9
B10
B11
B12
B13
B14
B15
B16
B17
B18
B19
B20
B21
B22
